Here are results for one molecule from patent US20210214414A1 (Pfizer, published 2021).

Experiment [1] addresses T1, Human SLIT2-N (human, UniProt O94813 31-1121, limits assumed).
T1 construct: domain: SLIT2-N (N terminal fragment); Soluble analyte in SPR, d2-labelled in HTRF, overexpressed on HEK293 cells in flow cytometry; also called human SLIT2-N (N terminal fragment)
T1 sequence (looked up): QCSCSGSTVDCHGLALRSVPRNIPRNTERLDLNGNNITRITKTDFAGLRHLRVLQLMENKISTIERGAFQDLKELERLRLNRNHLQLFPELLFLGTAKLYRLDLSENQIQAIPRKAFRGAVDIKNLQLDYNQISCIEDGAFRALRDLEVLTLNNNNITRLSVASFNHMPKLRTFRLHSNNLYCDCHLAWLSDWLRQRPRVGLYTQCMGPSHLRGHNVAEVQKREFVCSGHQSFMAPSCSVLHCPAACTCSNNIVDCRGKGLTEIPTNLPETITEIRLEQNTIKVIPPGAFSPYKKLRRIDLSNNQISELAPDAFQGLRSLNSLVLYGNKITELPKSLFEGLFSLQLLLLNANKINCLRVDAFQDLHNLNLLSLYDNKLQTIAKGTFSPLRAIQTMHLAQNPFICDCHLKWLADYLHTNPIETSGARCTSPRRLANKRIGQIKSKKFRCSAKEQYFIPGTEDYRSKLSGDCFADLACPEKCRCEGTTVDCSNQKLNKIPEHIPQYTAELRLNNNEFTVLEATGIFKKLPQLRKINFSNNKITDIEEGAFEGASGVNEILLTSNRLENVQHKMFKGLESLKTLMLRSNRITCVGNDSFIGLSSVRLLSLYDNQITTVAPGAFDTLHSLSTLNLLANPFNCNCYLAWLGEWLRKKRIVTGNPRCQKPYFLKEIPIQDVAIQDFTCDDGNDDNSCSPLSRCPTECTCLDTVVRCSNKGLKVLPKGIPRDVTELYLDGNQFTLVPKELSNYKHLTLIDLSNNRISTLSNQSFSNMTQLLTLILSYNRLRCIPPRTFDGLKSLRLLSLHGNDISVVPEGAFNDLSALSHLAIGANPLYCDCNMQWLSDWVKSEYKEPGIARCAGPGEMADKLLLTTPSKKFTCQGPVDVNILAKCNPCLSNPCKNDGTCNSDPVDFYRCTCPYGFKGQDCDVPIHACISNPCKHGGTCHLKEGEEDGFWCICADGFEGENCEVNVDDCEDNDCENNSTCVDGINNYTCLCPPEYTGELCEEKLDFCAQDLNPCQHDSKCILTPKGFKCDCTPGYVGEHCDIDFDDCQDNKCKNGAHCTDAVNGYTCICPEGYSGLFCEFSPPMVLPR
Description: SPR, ROBO2-Fc 2.2 captured by anti-human Fc on a C1 chip, human SLIT2-N as analyte, 1:1 model. On the procedure: (§1) HBS-EP was used as a diluent. […] An 8 point 2-fold dilution series was performed on the SLIT2 ligands, ranging from 2 nM to 15.6 pM using HBS-EPB as the diluent. […] Association of the indicated SLIT2 ligand was followed for 120 s and dissociation monitored for 180 s. The apparent binding affinity was determined using a simple 1:1 interaction model of the kinetic rate constants.
In general terms: Surface plasmon resonance follows binding to a sensor surface in real time, without labels.

Experiment [2] has as its target T1, Human SLIT2-N. Briefly: flow cytometry, AF647-labelled ROBO2-Fc 2.2 on HEK293 cells overexpressing human SLIT2-N. On the procedure:
After incubation, 150 μL of FACS buffer was added per well to wash the cells. After washing, cells were resuspended in buffer for data acquisition on a Fortessa Flow Cytometer.
(Flow cytometry measures light scatter and fluorescence of single cells or particles in a stream.)

In another experiment the target is T2, Rat SLIT2-N (rat, UniProt Q9WVC1 31-766, limits assumed).
T2 construct: domain: SLIT2-N (N terminal fragment)
T2 sequence (looked up): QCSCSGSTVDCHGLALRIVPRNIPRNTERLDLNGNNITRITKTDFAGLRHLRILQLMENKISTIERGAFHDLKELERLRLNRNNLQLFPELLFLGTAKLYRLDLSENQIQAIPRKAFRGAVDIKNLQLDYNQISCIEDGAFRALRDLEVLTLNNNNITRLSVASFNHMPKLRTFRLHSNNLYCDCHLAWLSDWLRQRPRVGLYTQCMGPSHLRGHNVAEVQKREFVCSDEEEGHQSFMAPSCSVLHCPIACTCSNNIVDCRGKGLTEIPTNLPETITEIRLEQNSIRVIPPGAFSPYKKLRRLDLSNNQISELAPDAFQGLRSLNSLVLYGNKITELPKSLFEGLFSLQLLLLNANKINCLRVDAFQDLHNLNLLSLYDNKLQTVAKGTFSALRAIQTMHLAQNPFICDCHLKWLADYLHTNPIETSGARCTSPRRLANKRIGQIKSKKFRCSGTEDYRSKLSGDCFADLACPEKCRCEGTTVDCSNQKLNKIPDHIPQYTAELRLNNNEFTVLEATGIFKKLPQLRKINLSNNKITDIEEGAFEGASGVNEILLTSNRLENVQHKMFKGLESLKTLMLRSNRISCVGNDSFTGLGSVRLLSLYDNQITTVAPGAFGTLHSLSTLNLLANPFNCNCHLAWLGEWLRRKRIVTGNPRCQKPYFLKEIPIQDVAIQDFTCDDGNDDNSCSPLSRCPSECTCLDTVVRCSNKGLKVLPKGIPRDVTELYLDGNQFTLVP
Briefly: SPR, ROBO2-Fc 2.2 captured by anti-human Fc on a C1 chip, rat SLIT2-N as analyte, 1:1 model. On the procedure:
as §1

For experiment [3], the target named is T1, Human SLIT2-N. Briefly: HTRF competition: d2-labelled human SLIT2-N binding to human ROBO2 on HEK293 cells (competitor: cell surface ROBO2). On the procedure: After incubation, fluorescence at 665 nm and 620 nm was measured on an Envision multilabel plate reader. The HTRF Ratio was calculated as follows: fluorescence at 665 nm/fluorescence at 620 nm×10,000. […] The IC₅₀ for each SLITx-N was determined using an 11-point, 4-fold dilution series with a top concentration of 4000 nM.
In general terms: In TR-FRET formats the signal depends on donor and acceptor labels being close together.

B1: ROBO2-Fc 2.2 (Fc fusion)
chain: SRLRQEDFPPRIVEHPSDVIVSKGEPTTLNCKAEGRPTPTIEWYKDGERVETDKDDPRSHRMLLPSGSLFFLRIVHGRRSKPDEGSYVCVARNYLGEAVSRNASLEVALLRDDFRQNPTDVVVAAGEPAILECQPPRGHPEPTIYWKKDKVRIDDKEERISIRGGKLMISNTRKSDAGMYTCVGTNMVGERDSDPAELTVFERGGSGGSEPKSSDKTHTCPPCPAPEAAGAPSVFLFPPKPKDTLMISRTPEVTCVVVDVSHEDPEVKFNWYVDGVEVHNAKTKPREEQYNSTYRVVSVLTVLHQDWLNGKEYKCKVSNKALPAPIEKTISKAKGQPREPQVYTLPPSREEMTKNQVSLTCLVKGFYPSDIAVEWESNGQPENNYKTTPPVLDSDGSFFLYSKLTVDKSRWQQGNVFSCSVMHEALHNHYTQKSLSLSPG
notes: Labelled with Alexa Fluor 647 in the flow cytometry assay; also called ROBO-Fc 2.2; ROBO2-Fc 2.2-AF647
With B1, the Kd (usually a measure of binding affinity in units of concentration) with Human SLIT2-N [1] is 0.279 nM; with Rat SLIT2-N, 0.543 nM. The concentration giving a half-maximal response (EC50) (as a rule, the concentration giving half of the maximal effect) in the experiment with Human SLIT2-N [2] was determined as 8.6 nM. Further, the IC50 – broadly, the concentration at which inhibition is half-maximal – with Human SLIT2-N [3] turned out to be 7 nM.
